The results in this text go back to article PMC3620054, “Lsb1 Is a Negative Regulator of Las17 Dependent Actin Polymerization Involved in Endocytosis” (PLoS ONE, 2013).

First the molecules themselves.
B1: SH3-Lsb1 (purified, GST cleaved off) (domain or fragment, S. cerevisiae, UniProt P53281 57-109, looked up)
chain: YVEALYDFEAQQDGDLSLKTGDKIQVLEKISPDWYRGKSNNKIGIFPANYVKP
notes: Lsb1, S. cerevisiae, SH3 domain, residues 57-109, from pGEX4T-1; also called SH3 domain of Lsb1; source: E. coli BL21, purified (glutathione Sepharose, thrombin cleavage, size exclusion chromatography)
B2: Lsb2 (purified, GST cleaved off) (natural protein, S. cerevisiae, UniProt Q06449 1-215, looked up)
chain: MSASLINRSLTNIRTELDFLKGSNVISNDVYDQINKSLPAKWDPANAPRNASPASLEYVEALYQFDPQQDGDLGLKPGDKVQLLEKLSPEWYKGSCNGRTGIFPANYVKPAFSGSNGPSNLPPPPQYKAQELQQIPTQNSAASSYQQQPFPPPSTNYYQQPQQQPQQAPPPQQQQQQQQHQSSHSHLKSFGSKLGNAAIFGAGASIGSDIVNNIF
notes: Lsb2 (Pin3), S. cerevisiae, full-length, from pGEX4T-1; also called full-length Lsb2; Pin3; source: E. coli BL21, purified (glutathione Sepharose, thrombin cleavage, size exclusion chromatography)
B3: SH3-Lsb2 (purified, GST cleaved off) (domain or fragment, S. cerevisiae, UniProt Q06449 59-110, looked up)
chain: VEALYQFDPQQDGDLGLKPGDKVQLLEKLSPEWYKGSCNGRTGIFPANYVKP
notes: Lsb2 (Pin3), S. cerevisiae, SH3 domain, residues 59-110, from pGEX4T-1; also called SH3 domain of Lsb2; source: E. coli BL21, purified (glutathione Sepharose, thrombin cleavage, size exclusion chromatography)
B4: Lsb1 (purified, GST cleaved off) (natural protein, S. cerevisiae, UniProt P53281 1-241, looked up)
chain: MSASLVNRSLKNIRNELEFLKESNVISGDIFELINSKLPEKWDGNQRSPQNADTEEYVEALYDFEAQQDGDLSLKTGDKIQVLEKISPDWYRGKSNNKIGIFPANYVKPAFTRSASPKSAEAASSSTVSRPSVPPPSYEPAASQYPSQQVSAPYAPPAGYMQAPPPQQQQAPLPYPPPFTNYYQQPQQQYAPPSQQAPVEAQPQQSSGASSAFKSFGSKLGNAAIFGAGSAIGSDIVNSIF
notes: Lsb1, S. cerevisiae, full-length, from pGEX4T-1; also called full-length Lsb1; source: E. coli BL21, purified (glutathione Sepharose, thrombin cleavage, size exclusion chromatography)

As a reminder, the Kd is a measure of binding affinity in units of concentration.

For the test, the target named is T1, Las17 (purified recombinant) (S. cerevisiae, UniProt Q12446 1-633).
T1 construct: Las17, the WASP homolog of S. cerevisiae; also called WASP homolog; source: recombinant, purified, produced as reported [25], [45], [46]
T1 sequence (Q12446 whole entry): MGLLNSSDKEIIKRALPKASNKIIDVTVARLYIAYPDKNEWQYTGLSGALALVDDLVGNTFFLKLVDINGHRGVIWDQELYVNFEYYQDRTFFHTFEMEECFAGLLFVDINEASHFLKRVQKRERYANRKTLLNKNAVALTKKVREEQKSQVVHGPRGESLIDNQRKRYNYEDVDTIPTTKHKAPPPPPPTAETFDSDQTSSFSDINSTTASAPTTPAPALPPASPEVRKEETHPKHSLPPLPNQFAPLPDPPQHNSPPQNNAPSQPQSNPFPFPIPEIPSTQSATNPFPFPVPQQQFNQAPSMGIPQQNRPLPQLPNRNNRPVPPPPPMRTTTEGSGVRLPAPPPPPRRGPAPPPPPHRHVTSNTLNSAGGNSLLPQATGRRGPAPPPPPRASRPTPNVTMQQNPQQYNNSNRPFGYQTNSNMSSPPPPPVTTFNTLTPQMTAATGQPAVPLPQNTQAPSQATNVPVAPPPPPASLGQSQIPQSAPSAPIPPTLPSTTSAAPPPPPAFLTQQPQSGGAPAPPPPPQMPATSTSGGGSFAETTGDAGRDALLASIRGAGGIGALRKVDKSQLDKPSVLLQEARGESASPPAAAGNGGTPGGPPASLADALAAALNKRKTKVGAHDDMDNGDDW
In words: SPR; Las17 coupled via an amino group to a CM5 chip, Biacore3000, 25°C, HBS-EP buffer, Lsb1, Lsb2 or their SH3 domains at 25 nM to 10 µM. The settings on record: both partners purified.
Consider B1, for which the Kd is 792 nM. With B2, the equilibrium dissociation constant (Kd) was 79 nM. B3: the equilibrium dissociation constant (Kd) was 730 nM.

For the molecule B4, the dissociation constant (Kd) is 30 nM.
